This assay has as its target Entamoeba histolytica ADP-forming acetyl-CoA synthetase, wild type (Entamoeba histolytica). The assay can be described thus: SEC. For orientation: SEC sorts molecules by how far they enter the pores of the column.

Usually stoichiometry N stands for the number of molecules, sites or subunits per partner or assembly.

On to “Entamoeba histolytica ADP-forming acetyl-CoA synthetase, wild type (enzyme)”, for which the stoichiometry N is 2.
